Measurements taken from article PMC6713926, “Structural Basis for Properdin Oligomerization and Convertase Stimulation in the Human Complement System” (Frontiers in Immunology, 2019).

Columns and labels:
Biotinylated C3b = target: T1, Biotinylated C3b (human, UniProt P01024 23-667; P01024 749-1663, biotin (Maleimide-PEG2-Biotin)); assay: BLI; biotinylated C3b on streptavidin sensors; FB variants at 40 μg/mL; 20 mM MES pH 6.0, 100 mM NaCl, 0.05% Tween, 1 mg/mL BSA, 5 mM MgCl2; conditions: both partners purified
T1 construct: complement C3, human, beta chain; complement C3, human, alpha' chain of C3b; also called biotin-C3b; immobilized C3b; source: made from plasma C3 by trypsin cleavage in the presence of Maleimide-PEG2-Biotin, purified by cation exchange
T1 sequence (P01024 23-667, chain 1 of 2): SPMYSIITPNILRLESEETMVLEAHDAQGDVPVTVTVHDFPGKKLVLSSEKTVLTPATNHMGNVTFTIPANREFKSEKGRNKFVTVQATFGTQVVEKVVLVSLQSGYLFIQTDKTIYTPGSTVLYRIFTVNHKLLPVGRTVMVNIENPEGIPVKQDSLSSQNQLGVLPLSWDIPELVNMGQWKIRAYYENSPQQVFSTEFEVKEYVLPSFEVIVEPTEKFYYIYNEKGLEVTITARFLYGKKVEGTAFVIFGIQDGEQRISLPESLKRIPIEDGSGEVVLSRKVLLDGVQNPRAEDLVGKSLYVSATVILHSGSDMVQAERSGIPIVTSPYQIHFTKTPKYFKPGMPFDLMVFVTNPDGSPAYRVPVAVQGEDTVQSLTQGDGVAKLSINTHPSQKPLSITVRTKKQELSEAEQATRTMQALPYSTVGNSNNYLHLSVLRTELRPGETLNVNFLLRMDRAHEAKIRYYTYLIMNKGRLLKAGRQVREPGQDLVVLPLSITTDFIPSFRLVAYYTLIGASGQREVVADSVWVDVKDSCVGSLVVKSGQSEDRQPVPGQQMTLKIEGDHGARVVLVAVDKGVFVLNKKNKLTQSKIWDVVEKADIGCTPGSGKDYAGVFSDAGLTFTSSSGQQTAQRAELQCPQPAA
T1 sequence (P01024 749-1663, chain 2 of 2): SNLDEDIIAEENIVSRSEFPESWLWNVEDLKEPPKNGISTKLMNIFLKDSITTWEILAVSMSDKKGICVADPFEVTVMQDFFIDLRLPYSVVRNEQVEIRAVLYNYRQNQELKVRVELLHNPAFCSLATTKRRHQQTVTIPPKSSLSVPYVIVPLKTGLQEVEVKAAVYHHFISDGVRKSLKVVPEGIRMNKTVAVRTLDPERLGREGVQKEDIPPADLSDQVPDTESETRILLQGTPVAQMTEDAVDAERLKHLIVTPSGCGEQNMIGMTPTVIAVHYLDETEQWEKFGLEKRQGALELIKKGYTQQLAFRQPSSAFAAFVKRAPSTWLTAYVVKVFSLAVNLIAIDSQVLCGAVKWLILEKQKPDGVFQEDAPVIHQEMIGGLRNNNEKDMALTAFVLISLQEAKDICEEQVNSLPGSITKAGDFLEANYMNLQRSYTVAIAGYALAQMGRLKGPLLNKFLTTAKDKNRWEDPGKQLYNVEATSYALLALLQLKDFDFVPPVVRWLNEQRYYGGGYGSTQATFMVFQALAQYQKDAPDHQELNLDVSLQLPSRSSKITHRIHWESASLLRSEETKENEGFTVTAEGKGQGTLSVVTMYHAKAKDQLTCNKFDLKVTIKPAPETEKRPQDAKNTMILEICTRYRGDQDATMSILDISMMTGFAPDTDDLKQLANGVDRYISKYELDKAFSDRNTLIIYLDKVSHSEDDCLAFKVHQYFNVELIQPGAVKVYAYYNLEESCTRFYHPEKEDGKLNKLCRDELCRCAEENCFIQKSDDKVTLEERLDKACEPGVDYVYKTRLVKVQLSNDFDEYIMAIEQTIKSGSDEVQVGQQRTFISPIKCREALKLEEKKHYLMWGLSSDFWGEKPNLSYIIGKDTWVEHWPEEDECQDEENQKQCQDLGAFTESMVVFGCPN

[1] = target: T2, WT FP, recombinant oligomeric properdin (human, UniProt P27918); assay: pull-down; 50 μg hFPNb1 added to HEK293F supernatants of WT FP or E244 mutants, captured on Ni-NTA beads, washed with 500 mM NaCl, eluted with 400 mM imidazole; conditions: one partner purified
T2 construct: properdin (FP), human, wild type; Secreted oligomers; preparations of ~50% dimer and 50% trimer, and of ~90% dimer and 10% trimer, were used; also called oligomeric FP; dimeric FP; source: also in cell supernatant
T2 sequence (P27918 28-469): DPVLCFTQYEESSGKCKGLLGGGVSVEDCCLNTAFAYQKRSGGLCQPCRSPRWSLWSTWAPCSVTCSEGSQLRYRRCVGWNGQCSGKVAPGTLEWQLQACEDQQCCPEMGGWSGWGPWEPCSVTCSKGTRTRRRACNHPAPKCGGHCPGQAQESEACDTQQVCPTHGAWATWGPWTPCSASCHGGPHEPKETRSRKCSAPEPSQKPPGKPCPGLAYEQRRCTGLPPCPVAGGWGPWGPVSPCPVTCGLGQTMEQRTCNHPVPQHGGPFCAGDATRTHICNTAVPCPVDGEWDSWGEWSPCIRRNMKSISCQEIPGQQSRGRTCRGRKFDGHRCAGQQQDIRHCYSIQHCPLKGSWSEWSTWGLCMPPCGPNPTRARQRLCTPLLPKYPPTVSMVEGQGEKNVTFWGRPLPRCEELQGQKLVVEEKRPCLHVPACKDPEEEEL

[2] = target: T3, FPhtΔ3, FP head-tail monomer without TSR3 (Homo sapiens, UniProt P27918); assay: crystal structure; C3bBbSCIN-FPhtΔ3-hFPNb1 complex, 6.2 Å; 100 mM NaCl, 5% PEG4000, 10 mM MgCl2, 100 mM sodium cacodylate pH 5.8; conditions: both partners purified
T3 construct: properdin (FP), human, TB-TSR2 (FPhΔ3), made from FPh by a stop codon between TSR2 and TSR3; properdin (FP), human, TSR4-6 tail fragment (FPt); The methods name FPhtΔ3 for the crystals with C3bBbSCIN and hFPNb1, the results FPcΔ3; also called FPcΔ3 (so called in the results for the nanobody complex); FPΔ3
T3 sequence (P27918 whole entry, looked up, stated change not applied, the tested form may be a part): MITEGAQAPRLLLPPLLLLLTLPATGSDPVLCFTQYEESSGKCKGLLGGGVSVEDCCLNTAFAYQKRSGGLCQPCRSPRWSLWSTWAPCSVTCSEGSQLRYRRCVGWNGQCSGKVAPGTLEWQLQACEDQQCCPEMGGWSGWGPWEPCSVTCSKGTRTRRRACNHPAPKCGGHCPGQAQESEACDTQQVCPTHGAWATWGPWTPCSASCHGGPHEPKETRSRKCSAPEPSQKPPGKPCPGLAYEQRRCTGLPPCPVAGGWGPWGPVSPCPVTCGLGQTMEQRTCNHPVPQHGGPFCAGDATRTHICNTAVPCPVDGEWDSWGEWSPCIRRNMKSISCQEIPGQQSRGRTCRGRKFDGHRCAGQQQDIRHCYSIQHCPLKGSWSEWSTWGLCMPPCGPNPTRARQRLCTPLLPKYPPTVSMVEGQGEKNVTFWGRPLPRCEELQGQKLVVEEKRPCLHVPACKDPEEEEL

B1: Recombinant FB D279G, S699A, K348A, L349A, K350A (enzyme, human, UniProt P00751 26-764, looked up)
chain: TPWSLARPQGSCSLEGVEIKGGSFRLLQEGQALEYVCPSGFYPYPVQTRTCRSTGSWSTLKTQDQKTVRKAECRAIHCPRPHDFENGEYWPRSPYYNVSDEISFHCYDGYTLRGSANRTCQVNGRWSGQTAICDNGAGYCSNPGIPIGTRKVGSQYRLEDSVTYHCSRGLTLRGSQRRTCQEGGSWSGTEPSCQDSFMYDTPQEVAEAFLSSLTETIEGVDAEDGHGPGEQQKRKIVLDPSGSMNIYLVLDGSGSIGASNFTGAKKCLVNLIEKVASYGVKPRYGLVTYATYPKIWVKVSEADSSNADWVTKQLNEINYEDHAAASGTNTKKALQAVYSMMSWPDDVPPEGWNRTRHVIILMTDGLHNMGGDPITVIDEIRDLLYIGKDRKNPREDYLDVYVFGVGPLVNQVNINALASKKDNEQHVFKVKDMENLEDVFYQMIDESQSLSLCGMVWEHRKGTDYHKQPWQAKISVIRPSKGHESCMGAVVSEYFVLTAAHCFTVDDKEHSIKVSVGGEKRDLEIEVVLFHPNYNINGKKEAGIPEFYDYDVALIKLKNKLKYGQTIRPICLPCTEGTTRALRLPPTTTCQQQKEELLPAQDIKALFVSEEEKKLTRKEVYIKNGDKKGSCERDAQYAPGYDKVKDISEVVTPRFLCTGGVSPYADPNTCRGDAGGPLIVHKRSRFIQVGVISWGVVDVCKNQKRQKQVPAHARDFHINLFQVLPWLKEKLQDEDLGFL
notes: complement factor B (FB), human; also called FB AAA; 348-AAA-350
Biotinylated C3b
  binding result: binds

B2: hFPNb1, FP specific non-inhibitory nanobody (VHH)
VHH: QVQLVESGGGLVQAGGSLRLSCAASERTFTIYAMGWFRQAPGKEREFVAAISRSGENTDYADSVKGRFTISRDNNKNTISLQMNSLKPEDTAVYYCAAGRAILVHTTKKEYDHWGQGTQVTVSS
notes: llama nanobody selected by phage display against FPc
[1]
  binding result: binds
[2]
  binding result: binds
